Reference: patent US7384632B2, “Agonist anti-trk-C monoclonal antibodies” (Genentech, Inc., priority 2000, dated 2008)
Positions count from the first letter of the chain named. Read-outs that look alike come from different tables or passages of the source.

Assays:
p75^NTR (LNGFR, p75) = biological target: T1, p75^NTR (LNGFR, p75) (Homo sapiens, UniProt P08138); details: equilibrium binding studies, neurotrophin-responsive neurons; cited from earlier work
T1 construct: host or cells: neurotrophin-responsive neurons
T1 sequence (P08138 29-427): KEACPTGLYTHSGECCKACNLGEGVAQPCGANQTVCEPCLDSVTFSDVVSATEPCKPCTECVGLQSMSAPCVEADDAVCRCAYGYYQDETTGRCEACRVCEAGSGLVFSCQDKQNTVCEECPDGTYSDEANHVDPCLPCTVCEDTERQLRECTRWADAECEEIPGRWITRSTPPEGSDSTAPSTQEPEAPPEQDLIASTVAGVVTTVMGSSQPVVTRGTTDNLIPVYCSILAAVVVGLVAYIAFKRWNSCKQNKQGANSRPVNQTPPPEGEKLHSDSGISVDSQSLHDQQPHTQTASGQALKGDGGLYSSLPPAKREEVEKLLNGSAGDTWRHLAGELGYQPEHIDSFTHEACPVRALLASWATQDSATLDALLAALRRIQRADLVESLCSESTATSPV

[1] = tested on: cisplatinum induced neuropathy; assay: Cisplatinum induced neuropathy in adult rats, H-wave sensory conduction velocity; type: in vivo, rat; details: 1 mg/kg three times per week subcutaneously for four weeks, continued cisplatinum
Procedure: In order to create an animal model of cisplatinum induced neuropathy, adult rats were dosed with cisplatinum twice a week for sixteen weeks with 1 mg/kg intraperitoneally (IP). At this point, rats were split into four groups. All four groups continued receiving cisplatinum twice weekly. […] The NT-3 doses were given subcutaneously, while the Mabs and saline were administered IV. This treatment regime was continued for an additional four weeks, for a total of twenty weeks of cisplatinum administration.

[2] = tested on: cisplatin sensory neuropathy; details: rats, cited from earlier work
pyridoxine toxicity = details: cited from earlier work
trkC L286H = biological target: T2, trkC L286H (Homo sapiens, UniProt Q16288, L317H/S70N); assay: Binding to trkC single amino acid mutants (EC50 ratio); details: NB = no binding observed
T2 construct: made in house
Description: (§1) Site-directed mutagenesis approach was used to determine the contribution of selected individual amino acid residues of domain 5 in the recognition by anti-trkC antibodies. […] A total of 26 single amino acid mutations were made and evaluated for their effect on binding to anti-trkC monoclonal antibodies. The values shown in Table 5 represent the ratio of binding to anti-trkC antibody of mutant vs wildtype trkC.

trkC L284E = biological target: T3, trkC L284E (Homo sapiens, UniProt Q16288, L315E/S70N); assay: as above; details: NB = no binding observed
T3 construct: made in house
Description: as §1

trkC R285A = biological target: T4, trkC R285A (Homo sapiens, UniProt Q16288, R316A/S70N); assay: as above; details: NB = no binding observed
T4 construct: made in house
Description: as §1

wildtype trkC = wildtype trkC (Homo sapiens, UniProt Q16288, S70N); assay: as above; details: wildtype trkC (reference)
Description: as §1

trkC H318A = biological target: T5, trkC H318A (Homo sapiens, UniProt Q16288, H349A/S70N); assay: as above
T5 construct: made in house
Description: (§2) A total of 26 single amino acid mutations were made and evaluated for their effect on binding to anti-trkC monoclonal antibodies.

trkC N335A = tested on: trkC N335A; set-up: species or system human; details: NB = no binding observed
Description: as §2

trkC E287K = biological target: T6, trkC E287K (Homo sapiens, UniProt Q16288, E318K/S70N); assay: Binding to trkC single amino acid mutants (EC50 ratio); details: NB = no binding observed
T6 construct: made in house
Description: as §1

gD-trkC = gD-trkC (Homo sapiens, UniProt Q16288); assay: BIAcore surface plasmon resonance (SPR) affinity; type: binding
Procedure: Affinities of anti-trkC agonist monoclonal antibodies were determined using BIAcore-2000™ surface plasmon resonance (SPR) system (BIAcore, Inc., Piscataway, N.J.). CM5 biosensor chips were activated with N-ethyl-N′-(3-dimethylaminopropyl)-carbodiimide hydrochloride (EDC) and N-hydroxysuccinimide (NHS) according to the supplier's instructions. In the first series of binding experiments, the antigen, gD-tagged trkC, was diluted into 10 mM sodium acetate buffer (pH 4.8), and injected over the activated chip at a concentration of 0.09 mg/mL. Using variable exposure times, four ranges of antigen density were achieved: 14,000-17,000 response units (RU), 7000-9000 RU, 2000-3000 RU, and 400-600 RU. The chip was blocked with ethanolamine.
In the first series of kinetic measurements, anti-trkC antibodies (IgG's) were diluted into running buffer (PBS containing 0.05% Tween-20 and 0.01% sodium azide) and 0.03 mL (667 nM) was injected over the biosensor chip at 25° C. at a flow rate of 0.01 mL/min.
In a second series of experiments, the IgG's (0.1 mg/mL in 10 mM sodium acetate, pH 4.8) were immobilized as described above, except that antibody density was limited to 1000-2000 RU. Two-fold serial dilutions of gD-trkC in the range of […] to 29 nM were then injected over the biosensor chip for kinetics measurements as described above.
The dissociation phase of each kinetic curve were fit to a single exponential dissociation rate (koff), and these rates were used in the calculation of the association rate (kon) from the injection phase, using a simple 1:1 Langmuir binding model (Lofas & Johnsson, 1990).
Equilibrium dissociation constants, Kd's, from SPR measurements were calculated as the ratio koff/kon.
The affinities of anti-trkC antibodies for gD-trkC were measured in SPR kinetics experiments with either antigen or antibody immobilized. Apparent affinities determined from experiments using low densities of immobilized antigen (0.4 to 0.6 ng/mm2), were generally consistent with those determined in experiments using immobilized IgG (see Table 2). […] In some cases, no binding could be detected when trkC was injected over immobilized IgG. This may have occurred because immobilization of the IgG led to steric blocking of the antigen-binding site.

[3] = gD-trkC binding to immobilized IgG's (1000-3000 RU)

Molecule: NGF: nerve growth factor, first identified member of the neurotrophin family
- Kd (p75^NTR (LNGFR, p75)): 2 nM

Molecule: NT-3: neurotrophin-3, the natural ligand of trkC receptor; positive control and comparator
- sensory conduction velocity (H-wave) [1]: improvement of this lowered conduction velocity
- cytoplasmic distribution of neurofilament protein in large sensory neurons and numbers of myelinated fibers in sural nerves ([2]; cisplatin): corrected
- H-reflex-related sensory nerve conduction velocity reduced by cisplatin [2]: restored to normal levels
- behavioral and electrophysiological sequelae of pyridoxine toxicity (beam-walking, H waves) (pyridoxine toxicity; NT-3 5-20 mg/kg/day, s.c., during chronic pyridoxine treatment): largely attenuated
- degeneration of sensory fibers in the dorsal column of the spinal cord (pyridoxine toxicity; NT-3 administration during chronic pyridoxine treatment): prevented degeneration of sensory fibers in the dorsal column of the spinal cord

B1: BDNF: brain-derived neurotrophic factor, a neurotrophin (protein, UniProt P23560 19-247, looked up)
Neurotrophic factor BDNF …: APMKEANIRGQGGLAYPGVRTHGTLESVNGPKAGSRGLTSLADTFEHVIEELLDEDQKVRPNEENNKDADLYTSRVMLSSQVPLEPPLLFLLEEYKNYLDAANMSMRVRRHSDPARRGELSVCDSISEWVTAADKKTAVDMSGGTVTVLEKVPVSKGQLKQYFYETKCNPMGYTKEGCRGIDKRHWNSQCRTTQSYVRALTMDSKKRIGWRFIRIDTSCVCTLTIKRGR
- Kd (p75^NTR (LNGFR, p75)): 2 nM

B2: Mab 2250: murine IgG1 agonist anti-trkC monoclonal antibody; hybridoma ATCC PTA-2149; heavy chain SEQ ID NO: 42, light chain SEQ ID NO: 49 (antibody)
heavy: NQVQLQQSGAELMQPGASVKISCKSTGYTFSNFWIEWVKQRPGHGLEWIGEILPGSDNTNYNEKFKGKATFTADTSSNTAYMQLSSLTSEDSAVYYCARKNRNYYGNYVVWGQGTLVTVSAC
light: NDIVMTQSPASLAVSLGQRATISYRASKSVSTSGYSYMHWNQQKPGQPPRLLIYLVSNLESGVPARFSGSGSGTDFTLNIHPVEEEDAATYYCQHIRELTRSARGQSWKKRC
modifications: Murine
- ratio of binding of mutant vs wildtype trkC (EC50 divided by EC50 of wildtype trkC) (trkC L286H): 0.4
- ratio of binding of mutant vs wildtype trkC (EC50 divided by EC50 of wildtype trkC) (trkC L284E): 0.6
- ratio of binding of mutant vs wildtype trkC (EC50 divided by EC50 of wildtype trkC) (trkC R285A): 2.6
- ratio of binding of mutant vs wildtype trkC (EC50 divided by EC50 of wildtype trkC) (wildtype trkC): 1.0
- ratio of binding of mutant vs wildtype trkC (EC50 divided by EC50 of wildtype trkC) (trkC H318A): 1.0
- ratio of binding of mutant vs wildtype trkC (EC50 divided by EC50 of wildtype trkC) (trkC N335A): 0.5
- ratio of binding of mutant vs wildtype trkC (EC50 divided by EC50 of wildtype trkC) (trkC E287K): 0.8
- Kd (gD-trkC; IgG's binding to immobilized gD-trkC (400-600 RU), read-out: Kd, Immobilized gD-trkC): 8.7 nM
- Kd (gD-trkC; Table 3, read-out: Affinity Kd): 8.7 nM
- Kd (gD-trkC; gD-trkC binding to immobilized IgG's (1000-3000 RU), read-out: Kd, Immobilized IgG): 28 nM

B3: Mab 2345: human IgG2 agonist anti-trkC monoclonal antibody; hybridoma ATCC PTA-2146; heavy chain SEQ ID NO: 47, light chain SEQ ID NO: 54 (antibody, listed as Homo sapiens, V domains shown)
VH: NQVQLQESGPGLVKPSQTLSLTCTVSGGSISSGGYYWSWIRQHPEKGLEWIGYIFYSGRTYYNPSLKSRVTISVDTSKNQFSLKLNSVTAADTAVYYCARERIAAAGADYYYNGLDVWGQGTTVTVSSC
VL: NEIVLTQSPGTLSLSPGERATLSCRASQSVSSNYLTWYQQKPGQAPRLLIYGASSRATGIPDRFSGSGSGTDFTLTISRLEPEDFAVYYCQQYGRSPPITFGQGTRLEIKRC
- Kd, Immobilized IgG (gD-trkC; [3]): NDB

B4: Mab 2349: human IgG4 agonist anti-trkC monoclonal antibody; hybridoma ATCC PTA-2153; heavy chain SEQ ID NO: 48, light chain SEQ ID NO: 55 (antibody, listed as Homo sapiens, V domains shown)
VH: B3 VH with G34Y, E45G, F55Y, R59S, V70L, N86S, A108T, D116A
VL: B3 VL with E2G, L22F, V30G, N33T, T36A
- Kd, Immobilized IgG (gD-trkC; [3]): NDB
